According to US20200040057A1 (IMMATICS BIOTECHNOLOGIES, published 2020):

Target: HLA-B*07 (human)
Test: UV peptide exchange ELISA; ++++ = yield >75%

peptide exchange yield [%] | Binder
> 75 | LPRAFLQSL
> 75 | SPSGQRDVSL
> 75 | LPRAGGAFLM
> 75 | VPKPAIPSSSVL
> 75 | HPRWIEPTVM
> 75 | KPGFNISIL
> 75 | VPMPGVQAV
> 75 | SPMEAELVRRIL
> 75 | NVNPARKGL
> 75 | KPHLDRRGAVI
> 75 | RLRDYISSL
> 75 | VPSHWMVAL
> 75 | LPSLSHCSQL
> 75 | LPRAGGAF
> 75 | IPVTSSVTL
> 75 | SPVPSHWMVAL
> 75 | QPVHSLCSA
> 75 | RPILKEQSSSSF
> 75 | LPALKEEAF
> 75 | KPRTPFTTAQLL
> 75 | SPFSGGPVSF
> 75 | NPRSPPATM
> 75 | RPSAPRGPP
> 75 | SPAAPLSPASSL
> 75 | RPRYETGVCA

peptide exchange yield [%] | Binder
> 75 | LPNTGRIGQLL
> 75 | IPHQRSSL
> 75 | SPIPRPLFL
> 75 | RPVTGSVC
> 75 | LVQSSRSEV
> 75 | LPRLPVGSLV
> 75 | GPVPSPLAL
> 75 | APEGKRLGF
> 75 | QPLDICHSF
> 75 | RPSKEMQVTI
> 75 | RPFSVSSISQL
> 75 | QPTWNTQTRL
> 75 | APPPPPPPF
> 75 | KPKAVKPKAA
> 75 | QPQCSTHIL
> 75 | TPFPDIHWF
> 75 | RPDSRLLEL
> 75 | SPTRGSEF
> 75 | QPSLVQAIF
> 75 | QPDHAGIFRVF
> 75 | FPAPPAHWF
> 75 | RPRSLQCVSL
> 75 | APARPAAAF
> 75 | SPSTSRTPLLSSL
> 75 | RPVWDVRSA

peptide exchange yield [%] | Binder
> 75 | LPIARVLTV
> 75 | RPQPGWRESL
> 75 | SPLLMQRTL
> 75 | MPVDSFNSM
> 75 | SPITLQAL
> 75 | RPYQDAPVA
> 75 | FPCSALLACF
> 75 | RPTHPLRSF
> 75 | VPYAAQAAL
> 75 | MPYVVLTAL
> 75 | APLPRPGAV
> 75 | RPVLTASSF
> 75 | MPVSAFTVI
> 75 | KPYEGRVEI
> 75 | YPSSPASAV
> 75 | SPIIHSILL
> 75 | FPYDKPLIM
> 75 | LPLNSSTSL
> 75 | MPVDSFNSML
> 75 | RAAGRRLQL
> 75 | RPPPPCIAL
> 75 | RPDVVRTLL
> 75 | AVRLPTPNL
> 75 | DVIDDIISL
> 75 | RVIQGTTTL
